Each block holds one binder with its values, some of them ahead of it.
Target: recombinant EGF (rEGF) protein with SV5 and 6xHis tags (human)
Assay: ELISA; titration ELISA: plates coated with rEGF at 5 µg/mL (BSA coating for negative controls, at the maximum tested nanobody concentration), blocked with 3% skimmed milk, biotinylated nanobodies serially diluted 1 h at RT, detected with streptavidin-HRP; KD estimated by the fitting function of ref. 37; triplicates

- Kd: 240 nM
B1: recombinant anti-EGF nanobody A8-1, biotinylated (VHH)
VHH: QVQLVESGGGSVQAGGSLRLSCTASGNSNYQYPHFDLGWFRQAPGQEREAVAAISSGGGRTYYADSVKGRFTISRDNAKNTVTLQMNNLKPEDTAIYYCAAVGSRTRNYRYWGQGTQVTVS

- Kd: 370 nM
B2: recombinant anti-EGF nanobody D6-4, biotinylated (VHH)
VHH: QVQLVESGGGSVQAGGSLRLSCTASGTRRYKYNVFDLGWFRQAPGQEREAVAAISTGGGRTYYADSVKGRFTISRDNAKNTVTLQMNNLKPEDTAIYYCAARRTNNANFRYWGQGTQVTVS
